From patent US20120003180A1 (TEXAS A AND M UNIVERSITY SYSTEM, published 2012) come the findings set out here.

As usually defined, the koff is the rate constant with which the complex falls apart. Read a low koff as a long-lived complex. Broadly, the Kd is the concentration at which binding is half-saturated.

Test [1] has as its target T1, α5β1 integrin protein, covalently immobilised on the optical biosensor cuvette.
T1 construct: The methods call the immobilised protein 'the α5β1 protein' and also 'immobilized α5'; The results speak of α5β1 integrin; also called α5β1 protein; immobilized α5 integrin
The experiment in a line: optical biosensor (IAsys), α5β1 immobilised, DV free in solution. As to the method:
(§1) Binding assays were carried out using an optical biosensor (IAsys; Affinity Sensors, UK) as described¹⁰⁸. In brief, to covalently bind the α5β1 protein, designated as an acceptor, onto the surfaces of a sensor, carboxylate groups present on the surface were activated by injection of a 1:1 mixture of 0.1 M N-hydroxysuccinimide and 0.4 M N-Ethyl-3-(3-dimethylaminopropyl) carbodiimide (Pierce). The acceptor dissolved in phosphate buffered saline (PBS) was then allowed to bind to the activated surface until a response plateau was reached. The residual active groups were blocked by an injection of 100 μL of 1 M Tris-HCl (pH 8.5).
(§2) The binding of DV to α5β1 was also investigated. DV's DGR sequence was mutated to AGR (D3904A) to determine whether this could disrupt DV binding to α5β1 as measured with optical biosensor (FIG. 18A).

Test [2] addresses T1, α5β1 integrin protein, covalently …. Description: optical biosensor (IAsys), α5β1 immobilised, DV free in solution; Kd from Koff/Kon. As to the method: as §1, §2

B1: Human perlecan Domain V (DV), recombinant, with C-terminal 6×His tag (ligand)
chain: EIKITFRPDSADGMLLYNGQKRVPGSPTNLANRQPDFISFGLVGGRPEFRFDAGSGMATIRHPTPLALGHFHTVTLLRSLTQGSLIVGDLAPVNGTSQGKFQGLDLNEELYLGGYPDYGAIPKAGLSSGFIGCVRELRIQGEEIVFHDLNLTAHGISHCPTCRDRPCQNGGQCHDSESSSYVCVCPAGFTGSRCEHSQALHCHPEACGPDATCVNRPDGRGYTCRCHLGRSGLRCEEGVTVTTPSLSGAGSYLALPALTNTHHELRLDVEFKPLAPDGVLLFSGGKSGPVEDFVSLAMVGGHLEFRYELGSGLAVLRSAEPLALGRWHRVSAERLNKDGSLRVNGGRPVLRSSPGKSQGLNLHTLLYLGGVEPSVPLSPATNMSAHFRGCVGEVSVNGKRLDLTYSFLGSQGIGQCYDSSPCERQPCQHGATCMPAGEYEFQCLCRDGFKGDLCEHEENPCQLREPCLHGGTCQGTRCLCLPGFSGPRCQQGSGHGIAESDWHLEGSGGNDAPGQYGAYFHDDGFLAFPGHVFSRSLPEVPETIELEVRTSTASGLLLWQGVEVGEAGQGKDFISLGLQDGHLVFRYQLGSGEARLVSEDPINDGEWHRVTALREGRRGSIQVDGEELVSGRSPGPNVAVNAKGSVYIGGAPDVATLTGGRFSSGITGCVKNLVLHSARPGAPPPQPLDLQHRAQAGANTRPCPSHHHHHH
notes: Cloned from HUVEC cDNA into pSecTag2A or pCepPu, secreted from 293 cells and purified on Ni beads; also called endorepellin; rhDV
In test [1], B1 displayed a koff of 0.72 s⁻¹. In addition, the Kd in test [2] was found to be 160 nM.
